For the data set, the system named is Saccharomyces cerevisiae PS128 hsf1 delta, HSF1(1-493) fusion. Put plainly: growth estimate (transactivation domain function in HSF1 fusion, heat-shock survival) (a.u. (slope of normalised read count over time)); higher = stronger growth at 37°C, i.e. more transactivation activity. The settings on record: library: design library. Put shortly:
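Transactivation-domain oligos were designed and fused to a truncated yeast HSF1 (amino acids 1–493), then expressed in a yeast strain lacking hsf1. Replica plating onto –trp 5-FOA plates was followed by incubation at 30°C or 37°C for 0, 2, 4, 6 and 8 days. Inserts were amplified by PCR and sequenced on an Illumina MiSeq as six barcoded replicates from a single experiment. The growth estimate is the slope of a robust linear fit over time of read counts normalised to sample totals and to starting count.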
Regarding DFDLDMLGDFDLDALG, the growth estimate is 0.195.

With KDDDEFSLWDSML, the growth estimate was 0.429.

Take TMDDVYGYLFDD: the growth estimate was 0.586.

For the sequence PEFPGIELQPLQELQALLQQ, the growth estimate was -0.243.

Turning to PEFPGIELQELQGLQALLQQ, the growth estimate was < -0.25.

For DFDLDMLGRFDLDMLG, the growth estimate is 1.8.

As to DFDLDMLGDFDLKMLG, the growth estimate is -0.116.

As for EDLYSIKWSDVY, the growth estimate was -0.245.

Consider GLDESWDYIFETTE, for which the growth estimate was 1.28.

In the case of EFNDLLDRDFILSN, the growth estimate was -0.0427.

On to VADDKWEELLSEDL, for which the growth estimate was -0.236.

For the sequence VADDIWEERLSEDL, the growth estimate was < -0.25.

In the case of DELSWAIELLEKDG, the growth estimate was < -0.25.

With VADDIWEELLSEDA, the growth estimate is -0.0522.

For the sequence PADDIWEELLSEDL, the growth estimate was 2.99.

On to DELSWIIKLLEKDG, for which the growth estimate was -0.233.

Consider VADDIWEELLGEDL, for which the growth estimate was 2.11.

On to EFNDLLDLDFILRN, for which the growth estimate was 5.09.

On to LFAYDFLFGNDFA, for which the growth estimate is 0.948.

For the sequence LPDYDFLFGNDFA, the growth estimate was 2.12.

Regarding VADDIWEELLSKDL, the growth estimate is 2.92.

In the case of DERSWIIELLEKDG, the growth estimate is < -0.25.

Take MLASHGFSVDTSALLDLFSP: the growth estimate was -0.0319.

As for MLSAHGFSVDTSALLDLFSP, the growth estimate is -0.231.

On to PFPDTQKDFLKWWRSEEAQ, for which the growth estimate was < -0.25.

As to EDLYSILWSPVY, the growth estimate is -0.241.

As to EFNDLLDLDFILPN, the growth estimate is 10.7.

For the sequence EFNDLGDLDFILSN, the growth estimate was -0.0268.

With EFNDLLDLDFIASN, the growth estimate was 0.58.

On to DFGLDMLGDFDLDMLG, for which the growth estimate is 2.44.

EDDDEFSLWPSML: the growth estimate is -0.166.

DFDLDMLGDFDLDMLP: the growth estimate was 22.2.

In the case of VADAIWEELLSEDL, the growth estimate is 0.167.

VADDIWEELLKEDL: the growth estimate was 7.64.

As to EFNGLLDLDFILSN, the growth estimate was -0.173.

Turning to PEFPGIELQELQELQALLGQ, the growth estimate was -0.226.

Turning to PEFPGIELQELQELQALLQP, the growth estimate is -0.215.

On to LFDYDFLFGNDKA, for which the growth estimate is 0.271.

For the sequence DLRESWDYIFETTE, the growth estimate is -0.213.

Take PFPDTQDDFLAWWRSEEAQ: the growth estimate is 2.37.

On to TMDDVYNPLFDD, for which the growth estimate is < -0.25.

For the sequence DKDLDMLGDFDLDMLG, the growth estimate is -0.127.

As for VADDIWEELLAEDL, the growth estimate is 2.64.

Take VADDIWRELLSEDL: the growth estimate was 7.56.

In the case of EDLYSILWSDRY, the growth estimate is -0.0848.

On to PEFPGIELQELQELPALLQQ, for which the growth estimate was < -0.25.

On to DELSWIIELLAKDG, for which the growth estimate is -0.221.

Consider PFPDTQDDFLKWWRSKEAQ, for which the growth estimate is -0.183.

As to DELSWRIELLEKDG, the growth estimate was -0.216.

In the case of DLDESWDYIFETRE, the growth estimate is 0.311.

As for EDDDEFSRWDSML, the growth estimate is -0.0194.

With PFDYDFLFGNDFA, the growth estimate is 2.14.

Regarding DLDESGDYIFETTE, the growth estimate is -0.129.

For the sequence VADDRWEELLSEDL, the growth estimate was < -0.25.

As for KMDDVYNYLFDD, the growth estimate is -0.148.

Take DELSWIIALLEKDG: the growth estimate was -0.104.

Take PFPDTQDDFRKWWRSEEAQ: the growth estimate was -0.247.

EFNDPLDLDFILSN: the growth estimate is -0.119.

As for EDLYSIRWSDVY, the growth estimate is -0.219.

Take MLPSHGFSVDTSALLDLFSP: the growth estimate was -0.0639.

Turning to PFPDTQDDFLKWWRSREAQ, the growth estimate was < -0.25.

In the case of EDLYSILWSDVY, the growth estimate was 0.971.

Consider EFNDLLDLDFILSG, for which the growth estimate is 1.41.

In the case of MLSSHGFSVDTSALLDLFSG, the growth estimate is -0.181.

As for EPNDLLDLDFILSN, the growth estimate is 0.229.

With PEFPGIPLQELQELQALLQQ, the growth estimate is -0.204.

For VADDIAEELLSEDL, the growth estimate was -0.224.

For the sequence KFDLDMLGDFDLDMLG, the growth estimate is 0.164.

Consider EFNDLLDLDFILSP, for which the growth estimate was -0.228.

LFDYDFLFGNDFR: the growth estimate is 3.17.

For EFNDLLDLDFIKSN, the growth estimate is -0.165.

Consider MLSSHGFSVDTSGLLDLFSP, for which the growth estimate is 0.0909.

As to AFPDTQDDFLKWWRSEEAQ, the growth estimate is -0.0486.

On to PEFPGIELQELQALQALLQQ, for which the growth estimate was < -0.25.

For DFDLDMLGDFDLGMLG, the growth estimate is 0.517.

In the case of TMDDVYNYKFDD, the growth estimate was < -0.25.

(Values after the supplement of paper PMC5949888.)
